Sequences and labels used below:
T1: Trop-2 on Trop-2 expressing tumor cells (human, UniProt P09758 27-323)
T1 construct: Endogenous Trop-2 of human tumour cell lines; also called Trop-2 positive tumor cells; A431 (Trop-2+++)
T1 sequence: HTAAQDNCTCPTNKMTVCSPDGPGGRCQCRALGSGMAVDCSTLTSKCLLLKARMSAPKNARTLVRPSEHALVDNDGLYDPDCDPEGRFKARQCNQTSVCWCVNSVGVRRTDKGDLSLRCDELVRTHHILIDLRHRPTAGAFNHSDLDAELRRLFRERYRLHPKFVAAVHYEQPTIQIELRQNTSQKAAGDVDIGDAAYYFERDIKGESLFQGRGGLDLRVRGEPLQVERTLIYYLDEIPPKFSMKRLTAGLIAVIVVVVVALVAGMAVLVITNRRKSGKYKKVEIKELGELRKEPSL

T2: monovalent human Trop2-ECD antigen (human, UniProt P09758 27-274)
T2 construct: also called human Trop2-ECD (Extracellular Domain)
T2 sequence: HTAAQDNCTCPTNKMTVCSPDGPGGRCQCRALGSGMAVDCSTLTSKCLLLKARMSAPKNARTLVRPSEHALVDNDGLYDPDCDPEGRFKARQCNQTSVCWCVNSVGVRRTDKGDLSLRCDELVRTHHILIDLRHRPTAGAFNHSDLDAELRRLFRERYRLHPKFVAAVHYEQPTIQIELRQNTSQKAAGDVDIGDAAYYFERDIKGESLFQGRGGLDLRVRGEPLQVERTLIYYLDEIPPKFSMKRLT

T3: human Trop-2-hFc (human, UniProt P09758 27-274)
T3 construct: also called huTrop-2; human Trop-2 human Fc fusion protein; not shown: human Fc
T3 sequence: T2 sequence

T4: cynomolgus monkey Trop-2-hFc (cynomolgus monkey, UniProt A0A2K5UE71 27-274)
T4 construct: also called cynoTrop-2; not shown: human Fc
T4 sequence: T2 sequence with M36V, K46E, S67N, I204V

B1: h7E6_WT antibody (human IgG1) (antibody, V domains shown)
VH: QVQLQESGPGLVKPSETLSLTCTVSGGSISSYGVHWIRQPPGKGLEWIGVIWTGGSTDYNSALMSRVTISVDTSKNQFSLKLSSVTAADTAVYYCARDGDYDRYTMDYWGQGTLVTVSS
VL: DIVMTQSPDSLAVSLGERATINCRASKSVSTSGYSYMHWYQQKPGQPPKLLIYLASNLESGVPDRFSGSGSGTDFTLTISSLQAEDVAVYYCQHSRELPYTFGQGTKLEIK
notes: Human IgG1
B2: h7E6_SVG antibody (human IgG1) (antibody, V domains shown)
VH: B1 VH with G54S, S56V, S65G
VL: B1 VL
B3: h7E6_N antibody (human IgG1) (antibody, V domains shown)
VH: B1 VH
VL: B1 VL with G33N
notes: Human IgG1
B4: h7E6_SVGN antibody (human IgG1) (antibody, V domains shown)
VH: B1 VH with G54S, S56V, S65G
VL: B1 VL with G33N
notes: Human IgG1
B5: h7E6_L antibody (human IgG1) (antibody, V domains shown)
VH: B1 VH
VL: B1 VL with G33L
notes: Human IgG1
B6: h7E6_SVGL antibody (human IgG1) (antibody, V domains shown)
VH: B1 VH with G54S, S56V, S65G
VL: B1 VL with G33L
notes: Human IgG1
B7: h7E6_SVG Fab (Fab, V domains shown)
VH: B1 VH with G54S, S56V, S65G
VL: B1 VL
notes: also called DG (h7E6_SVG)
B8: h7E6_SVG20 Fab (Fab, V domains shown)
VH: B1 VH with G54S, S56V, S65G, G99K
VL: B1 VL
notes: also called DK (h7E6_SVG20)
B9: h7E6_SVG22 Fab (Fab, V domains shown)
VH: B1 VH with G54S, S56V, S65G, G99A
VL: B1 VL
notes: also called DA (h7E6_SVG22)
B10: h7E6_SVG30 Fab (Fab, V domains shown)
VH: B1 VH with G54S, S56V, S65G, G99E
VL: B1 VL
notes: also called DE (h7E6_SVG30)
B11: h7E6_SVG28 Fab (Fab, V domains shown)
VH: B1 VH with G54S, S56V, S65G, G99L
VL: B1 VL
notes: also called DL (h7E6_SVG28)
B12: h7E6_SVG19 Fab (Fab, V domains shown)
VH: B1 VH with G54S, S56V, S65G, G99S
VL: B1 VL
notes: also called DS (h7E6_SVG19)
B13: h7E6-WT recombinant Fab fragment (Fab, V domains shown)
VH: B1 VH
VL: B1 VL
notes: Recombinant Fab
B14: h7E6_SVGL recombinant Fab fragment (Fab, V domains shown)
VH: B1 VH with G54S, S56V, S65G
VL: B1 VL with G33L
notes: Recombinant Fab
B15: h7E6_L recombinant Fab fragment (Fab, V domains shown)
VH: B1 VH
VL: B1 VL with G33L
notes: Recombinant Fab
B16: h6G11_WT antibody (human IgG1) (antibody, V domains shown)
VH: QVQLVQSGAEVKKPGASVKVSCKASGYTFTSYWINWVRQAPGQGLEWMGNIYPSDSYSNYNQKFKDRVTMTRDTSTSTVYMELSSLRSEDTAVYYCARGSSFDYWGQGTLVTVSS
VL: EIVLTQSPATLSLSPGERATLSCRASQTIGTSIHWYQQKPGQAPRLLIYYASESISGIPARFSGSGSGTDFTLTISSLEPEDFAVYYCQQSNSWPFTFGQGTKLEIK
notes: Human IgG1
B17: h6G11_FKG_SF antibody (human IgG1) (antibody, V domains shown)
VH: B16 VH with Y52F, Q62K, S101G
VL: B16 VL with Q89S, N92F
B18: chimeric mouse anti-Trop-2 6G11 antibody (human IgG1) (antibody, V domains shown)
VH: QVQLQQPGAELVRPGASVKLSCKASGYTFTSYWINWVKQRPGHGLEWIGNIYPSDSYSNYNQKFKDKATLTVDKSSSTAYMQVSSPTSEDSAVYYCTYGSSFDYWGQGTTVTVSS
VL: DILLTQSPAILSVSPGERVSFSCRASQTIGTSIHWYQQRTNGSPRLLIKYASESISGIPSRFSGSGSGTDFTLSINSVESEDIADYYCQQSNSWPFTFGSGTKLEIK
notes: Expressed in the human IgG1 subtype; also called mouse 6G11
B19: chimeric 7E6 recombinant Fab fragment (Fab, V domains shown)
VH: QVQLKESGPGLVAPSQSLSITCTVSGFSLTSYGVHWVRQPPGKGLEWLGVIWTGGSTDYNSALMSRLSINKDNSKSQVFLKMNSLQTDDTAMYYCARDGDYDRYTMDYWGQGTSVTVSS
VL: DIVLTQSPASLAVSLGQRATISCRASKSVSTSGYSYMHWYQQKPGQPPKLLIYLASNLESGVPARFSGSGSGTDFTLNIHPVEEEDAATYYCQHSRELPYTFGGGTKLEIK
notes: Recombinant chimeric Fab; also called mouse7E6

The record followed here is patent US20140357844A1 (RINAT NEUROSCIENCE, published 2014).

Substitutions are numbered along the chain they refer to.

The target in one assay is T1, Trop-2 on Trop-2 expressing tumor cells. The assay is described as follows: flow cytometry, A431 cells (Trop-2+++), 0.5 ug antibody per 200,000 cells. A general note: A flow cytometer gives signals particle by particle.
Protocol: For A431 cell staining, 200,000 cells were incubated with 0.5 ug antibody in 100 uL binding buffer (PBS (Phosphate Buffered Saline)+0.5% BSA (Bovine Serum Albumin)), followed by incubation with Dylight488-conjugated goat anti-human (Fab′)-2-specific secondary antibody from Jackson immunoresearch Laboratories (West Grove, Pa.).
In the case of B1, the “% positive” value was 94.8% and the MFI was 102000.

In the case of B2, the “% positive” value stood at 96.7% and the MFI is 121000.

As for B3, the “% positive” value came out at 98.6% and the MFI is 149000.

In the case of B4, the “% positive” value turned out to be 98.1% and the MFI is 128000.

As for B5, the “% positive” value was 95.1% and the MFI worked out at 110000.

As for B6, the “% positive” value was found to be 93.1% and the MFI worked out at 107000.

For a further assay, the target named is T2, monovalent human Trop2-ECD antigen. The assay can be described thus: SPR (ProteOn XPR36), amine-coupled Fab, monovalent human Trop2-ECD as analyte, 25 C.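 Further: GLC sensor chip, 3 min association then 15 min buffer dissociation, kinetics fit with a 1:1 Langmuir model, buffer of 10 mM sodium phosphate with 150 mM NaCl and 0.05% Tween-20 at pH 7.4.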
Protocol: Analysis of Fab/human Trop2-ECD (Extracellular Domain) interactions was performed using a Bio-Rad Proteon XPR36Surface Plasmon Resonance (SPR) biosensor (Bio-Rad, Hercules, Calif.) equipped with a GLC sensor chip. The assay temperature was 25° C., and the assay buffer was 10 mM Sodium Phosphate, 150 mM NaCl, 0.05% Tween-20, pH 7.4. […] In each analysis cycle, monovalent human Trop2-ECD antigen was flowed at 30 μL/min over the immobilized Fabs for 3 minutes followed by a buffer wash for 15 minutes to monitor dissociation of the Fab/Trop2 complex. The sensor surface was regenerated between analysis cycles, using three 18-second injections of a 2:1 mixture (by volume) of Pierce IgG Elution buffer:4 M NaCl (Pierce, Rockford, Ill.). […] The resulting data were fit to a 1:1 Langmuir binding model using the Proteon evaluation software.
The Kd is the free concentration of one partner at which half of the binding sites on the other are occupied at equilibrium, for simple one-to-one binding. Broadly, the koff is the rate constant with which the complex falls apart. For orientation: kon means the rate constant with which the complex forms. Turning to B7, binding was characterised by a dissociation constant (Kd) of 4.1 nM, the koff was determined as 0.00069 s⁻¹, the kon amounted to 170000 M⁻¹ s⁻¹ and the t1/2 came out at 1020 s.

Turning to B8, the dissociation constant (Kd) was over 75 nM, the koff stood at 0.013 s⁻¹, the on-rate (kon) was under 170000 M⁻¹ s⁻¹ and the t1/2 is 52.8 s.

B9: the Kd was over 75 nM, the koff amounted to 0.013 s⁻¹, the on-rate constant (kon) was under 180000 M⁻¹ s⁻¹ and the t1/2 was found to be 51.6 s.

In turn, B10 yielded a Kd of over 75 nM, a koff of 0.064 s⁻¹, an on-rate (kon) of under 850000 M⁻¹ s⁻¹ and a t1/2 of 10.8 s.

B11: the Kd was over 75 nM, the off-rate (koff) came out at 0.016 s⁻¹, the kon is under 210000 M⁻¹ s⁻¹ and the t1/2 turned out to be 43.2 s.

B12 displayed a Kd of over 75 nM, a dissociation rate constant (koff) of 0.045 s⁻¹, a kon of under 600000 M⁻¹ s⁻¹ and a t1/2 of 15.6 s.

In another assay the target is T1, Trop-2 on Trop-2 expressing tumor cells. The assay is described as follows: flow cytometry, Colo205 cells (Trop-2+), 1 ug antibody per 300,000 cells.
For B1, the “% positive” value was 99% and the MFI is 1760.

Take B2: the “% positive” value was found to be 100% and the MFI was found to be 2420.

B3: the “% positive” value was found to be 100% and the MFI was determined as 2700.

B4: the “% positive” value came out at 100% and the MFI amounted to 2730.

Regarding B5, the “% positive” value stood at 100% and the MFI came out at 2470.

As to B6, the “% positive” value worked out at 100% and the MFI stood at 2420.

The next assay addresses T3, human Trop-2-hFc. The assay is described as follows: SPR (Biacore T200), human Trop-2-hFc captured by anti-human Fc, Fab as analyte. In general terms: In SPR one partner is held on a chip, and binding of the other changes the refractive index at the surface.
Description: (§1) The human Trop-2-hFc or cynomolgus monkey Trop-2-hFc proteins were captured on the CM5 EDA chip 37 sensor surface coupled with anti-human Fc.
Turning to B7, the dissociation constant (Kd) amounted to 4.46 nM, the koff was found to be 0.000435 s⁻¹ and the on-rate (kon) stood at 97600 M⁻¹ s⁻¹.

B13 came in with a Kd of 21.1 nM, a koff of 0.00294 s⁻¹ and an association rate constant (kon) of 139000 M⁻¹ s⁻¹.

On to B14, for which binding was put at a Kd of 0.25 nM, the dissociation rate constant (koff) came to 3.27e-05 s⁻¹ and the on-rate constant (kon) came to 131000 M⁻¹ s⁻¹.

B15 displayed a Kd of 1.15 nM, a koff of 0.00015 s⁻¹ and a kon of 130000 M⁻¹ s⁻¹.

Another assay has as its target T1, Trop-2 on Trop-2 expressing tumor cells. The assay is described as follows: flow cytometry, Colo205 cells (Trop-2+), 1 ug antibody per 300,000 cells. The source holds these as a separate data set.
Regarding B16, the “% positive” value turned out to be 99% and the MFI was determined as 1720.

Regarding B17, the “% positive” value stood at 100% and the MFI came to 2060.

Regarding B18, the “% positive” value worked out at 100% and the MFI was 1670.

Another assay has as its target T4, cynomolgus monkey Trop-2-hFc. The assay is described as follows: SPR (Biacore T200), cynomolgus Trop-2-hFc captured by anti-human Fc, Fab as analyte.
Description: as §1
As for B19, the affinity, expressed as Kd, was 16.5 nM.

Take B7: the Kd was 7 nM, the off-rate constant (koff) is 0.00189 s⁻¹ and the association rate constant (kon) is 265000 M⁻¹ s⁻¹.

B13: the affinity, expressed as Kd, was 44 nM; the koff amounted to 0.00635 s⁻¹; the kon amounted to 144000 M⁻¹ s⁻¹.

B14: the Kd amounted to 0.57 nM, the koff was 7.42e-05 s⁻¹ and the kon came out at 130000 M⁻¹ s⁻¹.

B15 had an equilibrium dissociation constant (Kd) of 2.66 nM, an off-rate (koff) of 0.000335 s⁻¹ and an on-rate constant (kon) of 126000 M⁻¹ s⁻¹.

For a further assay, the target named is T1, Trop-2 on Trop-2 expressing tumor cells. The assay can be described thus: flow cytometry, A431 cells (Trop-2+++), 1 ug antibody per 300,000 cells.
As to B16, the “% positive” value amounted to 99.9% and the MFI was 19600.

B17: the “% positive” value stood at 99.9% and the MFI is 20300.

Turning to B18, the “% positive” value was determined as 99.9% and the MFI turned out to be 16200.
